Measured values published in the supplement of paper PMC9170038.

System: K4 kissing-loop RNA reporter
Test: apparent KD of K4 kissing-loop reporter; higher = weaker reporter binding
Conditions: Eterna round: R107; input ligand: none
Experimental: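 RNA-MaP round R107: designed RNA switches with theophylline, tryptophan, arginine or FMN aptamers are transcribed on-chip within common flanks. They are titrated with a labelled K4 kissing-loop RNA reporter in RNA-MaP buffer (100 mM Tris pH 7.5, 80 mM KCl, 4 mM MgCl2), without ligand or with the indicated ligand. Median apparent KD per design.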
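Further: bound reporter read as fluorescence of individual clusters on recovered sequencing chips by microscopy, with normalized cluster intensities fitted with a binding model.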

Sequence | apparent KD of K4 kissing-loop reporter [µM]
ACGCGCGCGAGUGAUGUUCGGAGCGGCUGGCAGGAUAUGUAGCAAUGCAGAAGGGUCGUGGCGGGCGCGGCGAAAGCCGCGCCCG [#2 Exclusion - FMN A Attempt #6 (HarryS)] | 0.444
AUGCCUCUGGCUGAUACCAGUGAUGCAGGGUAUGAGACAGGGAGUGAUGUUCCCUGCAGCCACCCUUGGCAGCAGUUUAAGUUUG [Exclusion Theophylline B GF 20] | 0.185
GGCAUAUAAAAUUGCCUAGAGAGAAAGGAUACCAGCACCCGGCGGUGCCCUUGGCAGCCUAGCCCAGUGAUGUUGGGUCCUCUAA [Esinvege] | 0.189
GCGCGGGAGUGAUGUUCCAAGUGGUGUUAACGAGGACCGGUACGGCCGCCACUCGAUACGGCCGGGCCGUAGGAUAAACUGGCGC [Same State - Tryptophan A (Freestyle 14)] | 0.441
ACUGGGUUGACGAAAGUCAACAAAAGAGAAGGAGCGCACGAAAGUGCAGGUAGGUCGCUCAUUCCAGUGAUGUUGGAUCACCAGA [#SwitchBubble 18 #K4Late] | 0.453
CGGCGCGGCGCGGCCGCCACUGCGCCUGGGCGCUCGCCGAGUGAUGUUCGUCGGCGGUCGGGUGGCAGGACCGGGUGCCGGCCCG [BDazzled - #20 SS Tryptophan B] | 0.217
AGGUCACCACUACAGUGAUGUUGUGGAGAGCAGGAUAUGCAGAAAUGCAGAAGGGCUCGCUCUCGGUGACCGAAUGAAACAUUCA [Omei KL FMN A SS A v7] | 0.766
GCGUAUGAUGCUCAAAGAGUAUCUCCCGAUACCAGUAUGGAAACAUACCCUUGGCAGCGGGUAACUGCCCAGUGAUGUUGGACGC [Theophylline A K4 9] | 0.351
GCCGUACGCAUGGAUACCAGCUUGUCCGAGUGAUGUUCGGGUCUGAAUGCCGGUAAUAAGAGCCCUUGGCAGCCAUGCGUACGGC | 0.124

Same assay, conditions: Eterna round: R107; input ligand: theophylline 20 uM

Sequence | apparent KD of K4 kissing-loop reporter [µM]
AUUUUGAGUGAUGUUCAUAUCUAUUCUGAAGGAGCGCUAAAUAAGGCAGGUAGGUCGCGGAAUAUAUAUAUAUAUAUAUAUAUAU [KL-SSArg-A30] | 0.624
GUAUCGCUAGGAGGAUAUUCCGUUUUUCAUAGAAAUGGCUAUGCGGAGUGAUGUUCCGAUUUACCGGAAGAAGGCCUAGUGAUAC [FMN B 23] | 0.142
AUACACGUUGCGGCCGCCACUUCGAUUAGUGAUGUUAGGUGUAAGCAGGCGCUGCAUUAAUGUGAAAGGACCGGGCAGAGUAAGC [theeternabot_exclusion_KL_Trp_B_39] | 0.206
UGACUGGACUGAAGGAGCGCUAAACUCCUAGUGAUGUUAGGAAAACGAGACAAAGUCUCGAAGCAGGUAGGUCGCAGUCUAGUCU | 0.162
UAUGGCGAGGGCCGCAUAUCAUUAAACCAGAAGGAUAUAUGUUACUAUAGAAGGUCUGCCGCUGCGAGUGAUGUUUGGAGUGAUC [theeternabot_sameState_KL_FMN_A_3] | 0.242
CGCAGUGAUGUUGCGAGUAGCUACAGGGAAGGAGCGCUCUAGUGAGCAGGUAGGUCGCCCACGCAGUGAUGUUGCGUCAUAGGGU [Exclusion Arg A GF9] | 0.113
GCCCGAAAGGGCCGAUGUGUUUGCGGCGAUCGAGGACCGGUACGGCCGCCACUCGUCGAGGCGUUCAGUGAUGUUGAAAGCAUUA | 0.354
CCAAACAGUUACGAUACCAGUCUAAUAUAUUUGAUCAAAACCCUCGCCGAGUGAUGUUCGGACCCUUGGCAGCGUCUGGGACAGG [zzbtmullin] | 0.414
AAGGGCUAGGCGGCCGCCACUUGUUGUGAACACAUACGAGCCAGUGAUGUUGGUAUUGUGUGCGGAAGGACCGGGCCUAGCCGAA [Exclusion - Tryptophan B (Freestyle 22)] | 0.224
ACGCGCGCGAGUGAUGUUCGGAGCGGCUGGCAGGAUAUGUAGCAAUGCAGAAGGGUCGUGGCGGGCGCGGCGAAAGCCGCGCCCG [#2 Exclusion - FMN A Attempt #6 (HarryS)] | 0.622
AUGCCUCUGGCUGAUACCAGUGAUGCAGGGUAUGAGACAGGGAGUGAUGUUCCCUGCAGCCACCCUUGGCAGCAGUUUAAGUUUG [Exclusion Theophylline B GF 20] | 0.197
GGCAUAUAAAAUUGCCUAGAGAGAAAGGAUACCAGCACCCGGCGGUGCCCUUGGCAGCCUAGCCCAGUGAUGUUGGGUCCUCUAA [Esinvege] | 0.235
GCGCGGGAGUGAUGUUCCAAGUGGUGUUAACGAGGACCGGUACGGCCGCCACUCGAUACGGCCGGGCCGUAGGAUAAACUGGCGC [Same State - Tryptophan A (Freestyle 14)] | 0.318
ACUGGGUUGACGAAAGUCAACAAAAGAGAAGGAGCGCACGAAAGUGCAGGUAGGUCGCUCAUUCCAGUGAUGUUGGAUCACCAGA [#SwitchBubble 18 #K4Late] | 0.279
CGGCGCGGCGCGGCCGCCACUGCGCCUGGGCGCUCGCCGAGUGAUGUUCGUCGGCGGUCGGGUGGCAGGACCGGGUGCCGGCCCG [BDazzled - #20 SS Tryptophan B] | 0.169
AGGUCACCACUACAGUGAUGUUGUGGAGAGCAGGAUAUGCAGAAAUGCAGAAGGGCUCGCUCUCGGUGACCGAAUGAAACAUUCA [Omei KL FMN A SS A v7] | 0.476
GCGUAUGAUGCUCAAAGAGUAUCUCCCGAUACCAGUAUGGAAACAUACCCUUGGCAGCGGGUAACUGCCCAGUGAUGUUGGACGC [Theophylline A K4 9] | 0.394
GCCGUACGCAUGGAUACCAGCUUGUCCGAGUGAUGUUCGGGUCUGAAUGCCGGUAAUAAGAGCCCUUGGCAGCCAUGCGUACGGC | 0.117

Same assay, conditions: Eterna round: R107; input ligand: tryptophan 2.4 mM

Sequence | apparent KD of K4 kissing-loop reporter [µM]
AUUUUGAGUGAUGUUCAUAUCUAUUCUGAAGGAGCGCUAAAUAAGGCAGGUAGGUCGCGGAAUAUAUAUAUAUAUAUAUAUAUAU [KL-SSArg-A30] | 0.537
GUAUCGCUAGGAGGAUAUUCCGUUUUUCAUAGAAAUGGCUAUGCGGAGUGAUGUUCCGAUUUACCGGAAGAAGGCCUAGUGAUAC [FMN B 23] | 0.142
AUACACGUUGCGGCCGCCACUUCGAUUAGUGAUGUUAGGUGUAAGCAGGCGCUGCAUUAAUGUGAAAGGACCGGGCAGAGUAAGC [theeternabot_exclusion_KL_Trp_B_39] | 0.148
UGACUGGACUGAAGGAGCGCUAAACUCCUAGUGAUGUUAGGAAAACGAGACAAAGUCUCGAAGCAGGUAGGUCGCAGUCUAGUCU | 0.169
UAUGGCGAGGGCCGCAUAUCAUUAAACCAGAAGGAUAUAUGUUACUAUAGAAGGUCUGCCGCUGCGAGUGAUGUUUGGAGUGAUC [theeternabot_sameState_KL_FMN_A_3] | 0.229
CGCAGUGAUGUUGCGAGUAGCUACAGGGAAGGAGCGCUCUAGUGAGCAGGUAGGUCGCCCACGCAGUGAUGUUGCGUCAUAGGGU [Exclusion Arg A GF9] | 0.101
GCCCGAAAGGGCCGAUGUGUUUGCGGCGAUCGAGGACCGGUACGGCCGCCACUCGUCGAGGCGUUCAGUGAUGUUGAAAGCAUUA | 0.626
CCAAACAGUUACGAUACCAGUCUAAUAUAUUUGAUCAAAACCCUCGCCGAGUGAUGUUCGGACCCUUGGCAGCGUCUGGGACAGG [zzbtmullin] | 0.371
AAGGGCUAGGCGGCCGCCACUUGUUGUGAACACAUACGAGCCAGUGAUGUUGGUAUUGUGUGCGGAAGGACCGGGCCUAGCCGAA [Exclusion - Tryptophan B (Freestyle 22)] | 0.302
ACGCGCGCGAGUGAUGUUCGGAGCGGCUGGCAGGAUAUGUAGCAAUGCAGAAGGGUCGUGGCGGGCGCGGCGAAAGCCGCGCCCG [#2 Exclusion - FMN A Attempt #6 (HarryS)] | 0.293
AUGCCUCUGGCUGAUACCAGUGAUGCAGGGUAUGAGACAGGGAGUGAUGUUCCCUGCAGCCACCCUUGGCAGCAGUUUAAGUUUG [Exclusion Theophylline B GF 20] | 0.168
GGCAUAUAAAAUUGCCUAGAGAGAAAGGAUACCAGCACCCGGCGGUGCCCUUGGCAGCCUAGCCCAGUGAUGUUGGGUCCUCUAA [Esinvege] | 0.223
GCGCGGGAGUGAUGUUCCAAGUGGUGUUAACGAGGACCGGUACGGCCGCCACUCGAUACGGCCGGGCCGUAGGAUAAACUGGCGC [Same State - Tryptophan A (Freestyle 14)] | 0.408
ACUGGGUUGACGAAAGUCAACAAAAGAGAAGGAGCGCACGAAAGUGCAGGUAGGUCGCUCAUUCCAGUGAUGUUGGAUCACCAGA [#SwitchBubble 18 #K4Late] | 0.199
CGGCGCGGCGCGGCCGCCACUGCGCCUGGGCGCUCGCCGAGUGAUGUUCGUCGGCGGUCGGGUGGCAGGACCGGGUGCCGGCCCG [BDazzled - #20 SS Tryptophan B] | 0.141
AGGUCACCACUACAGUGAUGUUGUGGAGAGCAGGAUAUGCAGAAAUGCAGAAGGGCUCGCUCUCGGUGACCGAAUGAAACAUUCA [Omei KL FMN A SS A v7] | 0.704
GCGUAUGAUGCUCAAAGAGUAUCUCCCGAUACCAGUAUGGAAACAUACCCUUGGCAGCGGGUAACUGCCCAGUGAUGUUGGACGC [Theophylline A K4 9] | 0.326
GCCGUACGCAUGGAUACCAGCUUGUCCGAGUGAUGUUCGGGUCUGAAUGCCGGUAAUAAGAGCCCUUGGCAGCCAUGCGUACGGC | 0.123
